Measurements published in publication PMC10160606, “Identification of GA20ox2 as a target of ATHB2 and TCP13 during shade response”.

Target: T1, ATHB2 (UniProt Q05466 1-284)
T1 sequence: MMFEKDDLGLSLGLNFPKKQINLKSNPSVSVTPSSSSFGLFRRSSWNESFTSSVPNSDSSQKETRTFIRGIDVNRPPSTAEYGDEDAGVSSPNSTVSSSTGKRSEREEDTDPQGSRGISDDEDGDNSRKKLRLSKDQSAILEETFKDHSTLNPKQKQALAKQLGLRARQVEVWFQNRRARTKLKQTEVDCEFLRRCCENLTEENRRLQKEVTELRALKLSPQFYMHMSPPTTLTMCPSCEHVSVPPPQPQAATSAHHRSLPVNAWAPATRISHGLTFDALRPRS
Assay: EMSA; 100x unlabeled identical oligonucleotide used as competitor in a separate lane; LightShift Chemiluminescent EMSA Kit (Thermo Fisher) per manufacturer; native gel; buffer, salt, pH and temperature not stated
Settings: protein: recombinant; tags: 6xHis (pET-28a); chain copies: 2; label: 3' biotin on both strands; blunt

B1: GA20ox2 promoter ABS1 31-mer (dsDNA)
DNA 1: CAATTTGAAGACAATGTTAGGAATTAGTTAC
DNA 2: GTAACTAATTCCTAACATTGTCTTCAAATTG
B1: binds.
